B1: Human MAOB (Homo sapiens) (protein)
chain: SNKCDVVVVGGGISGMAAAKLLHDSGLNVVVLEARDRVGGRTYTLRNQKVKYVDLGGSYVGPTQNRILRLAKELGLETYKVNEVERLIHHVKGKSYPFRGPFPPVWNPITYLDHNNFWRTMDDMGREIPSDAPWKAPLAEEWDNMTMKELLDKLCWTESAKQLATLFVNLCVTAETHEVSALWFLWYVKQCGGTTRIISTTNGGQERKFVGGSGQVSERIMDLLGDRVKLERPVIYIDQTRENVLVETLNHEMYEAKYVISAIPPTLGMKIHFNPPLPMMRNQMITRVPLGSVIKCIVYYKEPFWRKKDYCGTMIIDGEEAPVAYTLDDTKPEGNYAAIMGFILAHKARKLARLTKEERLKKLCELYAKVLGSLEALEPVHYEEKNWCEEQYSGGCYTTYFPPGILTQYGRVLRQPVDRIYFAGTETATHWSGYMEGAVEAGERAAREILHAMGKIPEDEIWQSEPESVDVPAQPITTTFLERHLPSVPGLLRLIGLTTIFSATALGFLAHKRGLLVRV
notes: recombinant, overexpressed and purified by published protocols
B2: Human MAOA (Homo sapiens) (protein)
chain: MENQEKASIAGHMFDVVVIGGGISGLSAAKLLTEYGVSVLVLEARDRVGGRTYTIRNEHVDYVDVGGAYVGPTQNRILRLSKELGIETYKVNVSERLVQYVKGKTYPFRGAFPPVWNPIAYLDYNNLWRTIDNMGKEIPTDAPWEAQHADKWDKMTMKELIDKICWTKTARRFAYLFVNINVTSEPHEVSALWFLWYVKQCGGTTRIFSVTNGGQERKFVGGSGQVSERIMDLLGDQVKLNHPVTHVDQSSDNIIIETLNHEHYECKYVINAIPPTLTAKIHFRPELPAERNQLIQRLPMGAVIKCMMYYKEAFWKKKDYCGCMIIEDEDAPISITLDDTKPDGSLPAIMGFILARKADRLAKLHKEIRKKKICELYAKVLGSQEALHPVHYEEKNWCEEQYSGGCYTAYFPPGIMTQYGRVIRQPVGRIFFAGTETATKWSGYMEGAVEAGERAAREVLNGLGKVTEKDIWVQEPESKDVPAVEITHTFWERNLPSVSGLLKIIGFSTSVTALGFVLYKYKLLPRS
notes: as for B1

Columns and labels:
Assay in all cases: purified protein
Conditions in all cases: 25 °C, 50 mM Hepes/NaOH pH 7.5, 0.5% v/v reduced Triton X-100
purified protein [1] = substrate: NCc1ccccc1
purified protein [2] = substrate: NCCC(=O)c1ccccc1N; assay type: biochemical, Homo sapiens
purified protein [3] = substrate: NCCc1ccccc1; assay type: biochemical, Homo sapiens
purified protein [4] = substrate: NCCc1ccc(O)cc1; assay type: biochemical, Homo sapiens
purified protein [5] = substrate: NCCc1c[nH]c2ccc(O)cc12

Protein	Km (purified protein [1]) [mM]	kcat (purified protein [1]) [min⁻¹]	kcat/Km (purified protein [1]) [M⁻¹ s⁻¹]	Km (purified protein [2]) [mM]	kcat (purified protein [2]) [min⁻¹]	kcat/Km (purified protein [2]) [M⁻¹ s⁻¹]	Km (purified protein [3]) [mM]	kcat (purified protein [3]) [min⁻¹]	kcat/Km (purified protein [3]) [M⁻¹ s⁻¹]	Km (purified protein [4]) [mM]	kcat (purified protein [4]) [min⁻¹]	kcat/Km (purified protein [4]) [M⁻¹ s⁻¹]	Km (purified protein [5]) [mM]	kcat (purified protein [5]) [min⁻¹]	kcat/Km (purified protein [5]) [M⁻¹ s⁻¹]
B1	0.35 ± 0.10	44.3 ± 5.0	2100	0.052 ± 0.007	29.1 ± 1.0	9300	0.011 ± 0.001	45.5 ± 1.0	68900	0.40 ± 0.11	44.5 ± 5.0	1850	–	–	–
B2	–	–	–	0.20 ± 0.02	83.4 ± 2.3	6920	0.40 ± 0.10	48.2 ± 3.3	2010	0.10 ± 0.02	92.0 ± 4.2	15300	1.8 ± 0.1	226.6 ± 4.5	2100

— PMC11833248, “Evolutionary and Functional Analysis of Monoamine Oxidase F: A Novel Member of the Monoamine Oxidase Gene Family” (Genome Biology and Evolution, 2025)
